B1: type 2 EBNA2 polypeptide T2 EBNA2_(348-422) [Epstein-Barr virus type 2 (AG876)] / BS69 coiled-coil MYND domain (BS69_(CC-MYND), amino acids 480-602) [human] (parent)
chain 1: SMPQLSPVVSLHQGQGPENSPTPGPSTAGPVCRVTPSATPDISPIHEPESSDSEEPPFLFPSDWYPPTLEPAELD
chain 2: DRMKSDHKRETERVVREALEKLRSEMEEEKRQAVNKAVANMQGEMDRKCKQVKEKCKEEFVEEIKKLATQHKQLISQTKKKQWCYNCEEEAMYHCCWNTSYCSIKCQQEHWHAEHKRTCRRKR

Variants of: B1
Assay: ITC
Conditions: with BS69 coiled-coil MYND domain (BS69_(CC-MYND), amino acids 480-602) [human], two-site model, 29 injections of 1.3 μl 0.3 mM EBNA2 polypeptide and 0.1 mM BS69CC-MYND in the cell
[1] = binding event 1 (KD1), parent: 9 nM
[2] = binding event 2 (KD2), parent: 91 nM

Variant	Kd [1] [nM]	Kd [2] [nM]
chain 1 SMPQLSPVVSLHQGQGPENSPTPGPSTAGPVCRVTPSATPDISPIHEPESSDSEEPPFLFPDDWYPPTLEPAELD [chain 1 S62D]	5	94
chain 1 SMPQLSPVVSLHQGQGPENSPTPGPSTAGPVCRVTPSATPDISPIHEPESSDSEEPPFLFPDDWYPATAEAAELD [chain 1 S62D P67A L69A P71A]	8	200

From paper PMC6638984, “Increased association between Epstein-Barr virus EBNA2 from type 2 strains and the transcriptional repressor BS69 restricts EBNA2 activity” (PLoS Pathogens, 2019)
